From the supplement of paper PMC5998384

What was measured:
[1] = tested on: HeLa Kyoto; experiment: solubility in G1/S (NP-40 vs SDS abundance) (log2 ratio); higher = more soluble; conditions: cell cycle stage: G1/S
[2] = tested on: HeLa Kyoto; experiment: solubility change mitosis vs G1/S (difference of NP-40 vs SDS log2 ratios) (log2 ratio difference); higher = more soluble in mitosis
[3] = tested on: HeLa Kyoto; experiment: thermal stability score vs G1/S (z-score of summed log2 fold changes over temperatures); higher = more thermally stable than in G1/S
[4] = cell cycle stage: early G1 (4.5 h after nocodazole release)
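Throughout, for solubility change mitosis vs G1/S (difference of NP-40 vs SDS log2 ratios): synchronized HeLa Kyoto cells (double thymidine block for G1/S, nocodazole release for mitosis), protein amounts in NP-40 versus SDS lysates quantified by mass spectrometry, three biological replicates.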
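Throughout, for solubility in G1/S (NP-40 vs SDS abundance): HeLa Kyoto cells arrested at G1/S by double thymidine block, proteins quantified by TMT10plex mass spectrometry in mild NP-40 versus SDS extracts, three biological replicates.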
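Throughout, for thermal stability score vs G1/S (z-score of summed log2 fold changes over temperatures): synchronized HeLa Kyoto cells, proteins quantified by TMT10plex mass spectrometry, three biological replicates, mitosis taken 0.5 h after nocodazole release, G1/S directly after double thymidine block.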

## MAARAVLDEFTAPAEKAELLEQSRGRIEGLFGVSLAVLGALGAEEPLPARIWLQLCGAQEAVHSAKEYIKGICEPELEERECYPKDMHCIFVGAESLFLKSLIQDTCADLCILDIGLLGIRGSAEAVVMARSHIQQFVKLFENKENLPSSQKESEVKREFKQFVEAHADNYTMDLLILPTSLKKELLTLTQGEENLFETGDDEVIEMRDSQQTEFTQNAATGLNISRDETVLQEEARNKAGTPVSELTKQMDTVLSSSPDVLFDPINGLTPDEEALSNERICQKRRFSDSEERHTKKQFSLENVQEGEILHDAKTLAGNVIADLSDSSADSENLSPDIKETTEEMEYNILVNFFKTMGYSQEIVEKVIKVYGPSTEPLLLLEEIEKENKRFQEDREFSAGTVYPETNKTKNKGVYSSTNELTTDSTPKKTQAHTQQNMVEKFSQLPFKVEAKPCTSNCRINTFRTVPIEQKHEVWGSNQNYICNTDPETDGLSPSVASPSPKEVNFVSRGASSHQPRVPLFPENGLHQQPEPLLPNNMKSACEKRLGCCSSPHSKPNCSTLSPPMPLPQLLPSVTDARSAGPSDHIDSSVTGVQRFRDTLKIPYKLELKNEPGRTDLKHIVIDGSNVAITHGLKKFFSCRGIAIAVEYFWKLGNRNITVFVPQWRTRRDPNVTEQHFLTQLQELGILSLTPARMVFGERIASHDDRFLLHLADKTGGIIVTNDNFREFVNESVSWREIITKRLLQYTFVGDIFMVPDDPLGRSGPRLEEFLQKEVCLRDMQPLLSALPNVGMFDPSFRVPGTQAASTSHQPPTRIQGAPSSHWLPQQPHFPLLPALPSLQQNLPMPAQRSSAETNELREALLKIFPDSEQRLKIDQILVAHPYMKDLNALSAMVLD [N4BP1]
[1]
  solubility in G1/S (log2): 0.0767
[2]
  solubility change mitosis (log2): -0.0226
[3]; [4]
  thermal stability score: 1.68
[3]; cell cycle stage: mitosis
  thermal stability score: 2.82

## MAASRLELNLVRLLSRCEAMAAEKRDPDEWRLEKYVGALEDMLQALKVHASKPASEVINEYSWKVDFLKGMLQAEKLTSSSEKALANQFLAPGRVPTTARERVPATKTVHLQSRARYTSEMRSELLGTDSAEPEMDVRKRTGVAGSQPVSEKQLAAELDLVLQRHQNLQEKLAEEMLGLARSLKTNTLAAQSVIKKDNQTLSHSLKMADQNLEKLKTESERLEQHTQKSVNWLLWAMLIIVCFIFISMILFIRIMPKLK [USE1]
[1]
  solubility in G1/S (log2): 0.00595
[2]
  solubility change mitosis (log2): -0.0501
[3]; [4]
  thermal stability score: 0.334
[3]; cell cycle stage: mitosis
  thermal stability score: 0.48

## MAEDWLDCPALGPGWKRREVFRKSGATCGRSDTYYQSPTGDRIRSKVELTRYLGPACDLTLFDFKQGILCYPAPKAHPVAVASKKRKKPSRPAKTRKRQVGPQSGEVRKEAPRDETKADTDTAPASFPAPGCCENCGISFSGDGTQRQRLKTLCKDCRAQRIAFNREQRMFKRVGCGECAACQVTEDCGACSTCLLQLPHDVASGLFCKCERRRCLRIVERSRGCGVCRGCQTQEDCGHCPICLRPPRPGLRRQWKCVQRRCLRGKHARRKGGCDSKMAARRRPGAQPLPPPPPSQSPEPTEPHPRALAPSPPAEFIYYCVDEDELQPYTNRRQNRKCGACAACLRRMDCGRCDFCCDKPKFGGSNQKRQKCRWRQCLQFAMKRLLPSVWSESEDGAGSPPPYRRRKRPSSARRHHLGPTLKPTLATRTAQPDHTQAPTKQEAGGGFVLPPPGTDLVFLREGASSPVQVPGPVAASTEALLQEAQCSGLSWVVALPQVKQEKADTQDEWTPGTAVLTSPVLVPGCPSKAVDPGLPSVKQEPPDPEEDKEENKDDSASKLAPEEEAGGAGTPVITEIFSLGGTRFRDTAVWLPRSKDLKKPGARKQ [MBD1]
[1]
  solubility in G1/S (log2): -0.475
[2]
  solubility change mitosis (log2): 0.37
[3]; [4]
  thermal stability score: -0.407
[3]; cell cycle stage: mitosis
  thermal stability score: -0.0664

## MAKQLQARRLDGIDYNPWVEFVKLASEHDVVNLGQGFPDFPPPDFAVEAFQHAVSGDFMLNQYTKTFGYPPLTKILASFFGELLGQEIDPLRNVLVTVGGYGALFTAFQALVDEGDEVIIIEPFFDCYEPMTMMAGGRPVFVSLKPGPIQNGELGSSSNWQLDPMELAGKFTSRTKALVLNTPNNPLGKVFSREELELVASLCQQHDVVCITDEVYQWMVYDGHQHISIASLPGMWERTLTIGSAGKTFSATGWKVGWVLGPDHIMKHLRTVHQNSVFHCPTQSQAAVAESFEREQLLFRQPSSYFVQFPQAMQRCRDHMIRSLQSVGLKPIIPQGSYFLITDISDFKRKMPDLPGAVDEPYDRRFVKWMIKNKGLVAIPVSIFYSVPHQKHFDHYIRFCFVKDEATLQAMDEKLRKWKVEL [CCBL1]
[1]
  solubility in G1/S (log2): 0.0856
[2]
  solubility change mitosis (log2): -0.211
[3]; [4]
  thermal stability score: 0.0443
[3]; cell cycle stage: mitosis
  thermal stability score: -0.361

## MARPGMERWRDRLALVTGASGGIGAAVARALVQQGLKVVGCARTVGNIEELAAECKSAGYPGTLIPYRCDLSNEEDILSMFSAIRSQHSGVDICINNAGLARPDTLLSGSTSGWKDMFNVNVLALSICTREAYQSMKERNVDDGHIININSMSGHRVLPLSVTHFYSATKYAVTALTEGLRQELREAQTHIRATCISPGVVETQFAFKLHDKDPEKAAATYEQMKCLKPEDVAEAVIYVLSTPAHIQIGDIQMRPTEQVT [DHRS11]
[1]
  solubility in G1/S (log2): 0.514
[2]
  solubility change mitosis (log2): -0.00389
[3]; [4]
  thermal stability score: -0.426
[3]; cell cycle stage: mitosis
  thermal stability score: -1.39

## MARTTSQLYDAVPIQSSVVLCSCPSPSMVRTQTESSTPPGIPGGSRQGPAMDGTAAEPRPGAGSLQHAQPPPQPRKKRPEDFKFGKILGEGSFSTVVLARELATSREYAIKILEKRHIIKENKVPYVTRERDVMSRLDHPFFVKLYFTFQDDEKLYFGLSYAKNGELLKYIRKIGSFDETCTRFYTAEIVSALEYLHGKGIIHRDLKPENILLNEDMHIQITDFGTAKVLSPESKQARANSFVGTAQYVSPELLTEKSACKSSDLWALGCIIYQLVAGLPPFRAGNEYLIFQKIIKLEYDFPEKFFPKARDLVEKLLVLDATKRLGCEEMEGYGPLKAHPFFESVTWENLHQQTPPKLTAYLPAMSEDDEDCYGNYDNLLSQFGCMQVSSSSSSHSLSASDTGLPQRSGSNIEQYIHDLDSNSFELDLQFSEDEKRLLLEKQAGGNPWHQFVENNLILKMGPVDKRKGLFARRRQLLLTEGPHLYYVDPVNKVLKGEIPWSQELRPEAKNFKTFFVHTPNRTYYLMDPSGNAHKWCRKIQEVWRQRYQSHPDAAVQ [PDPK1]
[1]
  solubility in G1/S (log2): 0.156
[2]
  solubility change mitosis (log2): -0.222
[3]; [4]
  thermal stability score: 1.38
[3]; cell cycle stage: mitosis
  thermal stability score: 0.777

## MASAAVESFVTKQLDLLELERDAEVEERRSWQENISLKELQSRGVCLLKLQVSSQRTGLYGRLLVTFEPRRYGSAAALPSNSFTSGDIVGLYDAANEGSQLATGILTRVTQKSVTVAFDESHDFQLSLDRENSYRLLKLANDVTYRRLKKALIALKKYHSGPASSLIEVLFGRSAPSPASEIHPLTFFNTCLDTSQKEAVLFALSQKELAIIHGPPGTGKTTTVVEIILQAVKQGLKVLCCAPSNIAVDNLVERLALCKQRILRLGHPARLLESIQQHSLDAVLARSDSAQIVADIRKDIDQVFVKNKKTQDKREKSNFRNEIKLLRKELKEREEAAMLESLTSANVVLATNTGASADGPLKLLPESYFDVVVIDECAQALEASCWIPLLKARKCILAGDHKQLPPTTVSHKAALAGLSLSLMERLAEEYGARVVRTLTVQYRMHQAIMRWASDTMYLGQLTAHSSVARHLLRDLPGVAATEETGVPLLLVDTAGCGLFELEEEDEQSKGNPGEVRLVSLHIQALVDAGVPARDIAVVSPYNLQVDLLRQSLVHRHPELEIKSVDGFQGREKEAVILSFVRSNRKGEVGFLAEDRRINVAVTRARRHVAVICDSRTVNNHAFLKTLVEYFTQHGEVRTAFEYLDDIVPENYSHENSQGSSHAATKPQGPATSTRTGSQRQEGGQEAAAPARQGRKKPAGKSLASEAPSQPSLNGGSPEGVESQDGVDHFRAMIVEFMASKKMQLEFPPSLNSHDRLRVHQIAEEHGLRHDSSGEGKRRFITVSKRAPRPRAALGPPAGTGGPAPLQPVPPTPAQTEQPPREQRGPDQPDLRTLHLERLQRVRSAQGQPASKEQQASGQQKLPEKKKKKAKGHPATDLPTEEDFEALVSAAVKADNTCGFAKCTAGVTTLGQFCQLCSRRYCLSHHLPEIHGCGERARAHARQRISREGVLYAGSGTKNGSLDPAKRAQLQRRLDKKLSELSNQRTSRRKERGT [IGHMBP2]
[1]
  solubility in G1/S (log2): -0.73
[2]
  solubility change mitosis (log2): 0.296
[3]; [4]
  thermal stability score: 0.859
[3]; cell cycle stage: mitosis
  thermal stability score: 0.156
